# In patent US9670264B2, “Water soluble G-protein coupled receptor” (The Trustees of The University of Pennsylvania, priority 2013, dated 2017):
# B1: wsMUR-TM: computationally designed transmembrane-only water-soluble variant of the human μ opioid receptor (protein)
# chain: SMITAIKIHEEYKKVCEEGKKGNKLVMEVIVRYTKMKTATNIYIFNLAKADALAESTLPFQSVNKLMGTWPFGTILCKKVISIDYYNMFTSIFTLCTMSVDRYIAVCHPVKALDFRTPRNAKEENEKNWKLSSEIGKPVEKKATTKYRQGSIDCTLTFSHPTWYWEDKLKDEVFKKAFEEPVKKIKECYGLMILRLKSVRMLSGSKEKDRNLRRITRMVLVVVEVFIKCWTEIHKYVKEGKLVTIPETTFQTVSWHECIAKGYKNSCENPKLYEELDENFKRCFREFC
# B2: wsMUR-TM+7mut: second wsMUR recombinant protein (protein)
# chain: SMITAIKILEEYKKVCEEGRKGNKLVMEVIVRYTKMKTATNIYIFNLAKADALAESTLPFQSVNKLMGTWPFGTILCKKVISIDYYNMFTSIFTLCTMSVDRYIAVCHPVKALDFRTPRNAKEHNEKNWKLSSEIGKPVEKRATTKYRQGSIDCTLTFSHPTWYWEDKLKDTVFKKAFEEPVKVIKECYGLMILRLKSVRMLSGSKEKDRNLRRITRMVLVVVEVFIKCWTEIHKYVKEGKL
# Experiments:
# [1] = Secondary structure by circular dichroism (CD); assay type: physicochemical; conditions: CD 205-260 nm
# Description: The CD spectra indicated predominantly helical structures with a helical secondary structure content of ˜48% (estimations based on the molar ellipticity over the range 205 to 260 nm). The comparison of the helical content with that of the native human MUR expressed in yeast system in the presence of high concentration of detergent (0.1% SDS) is presented in Table 1.
# [2] = Effects of denaturant (urea) and reducing agent (2-ME), by CD and intrinsic tryptophan fluorescence; assay type: physicochemical
# Description: CD and intrinsic tryptophan fluorescence were used to probe disulfide bond formation in the water-soluble variant. […] Even in 8 M urea, the protein retains some helical structure (Table 2). Upon addition of 2-ME, both the molar ellipticity and fluorescence further decreased, becoming more pronounced at the higher concentration of the reducing agent (200 mM). Thus the presence of an intramolecular disulfide bond is corroborated in the case of wsMUR-TM.
# Of particular interest are the tryptophan residues located in the partially buried transmembrane locations of the model structure (positions 194, 295, and 320). The fluorescence associated with these residues is expected to be sensitive to the local hydrophobic environment and overall folding of the protein.
# The decrease of the tryptophan fluorescence under denaturing conditions and in the presence of 2-ME is consistent with the changes in CD spectra observed under similar conditions. The requirement of the reducing agent to fully denature and unfold the protein indicates the relevance of an intramolecular disulfide bond in stabilizing the receptor structure. […] However, the CD and ligand-binding studies are consistent with the adoption of the proper protein tertiary structure and by extension with the formation of the correct disulfide bond.
# [3] = Thermostability monitored by CD (222 nm); assay type: physicochemical; conditions: 5 mM sodium phosphate, pH=7.0; for melting point: 0.01% SDS
# [4] = test system: human μ opioid receptor expressed in HEK293 cells; assay: Binding competition assay (TR-FRET/HTRF) between native human μ opioid receptor and water-soluble variants, with a fluorescent naltrexone-derived antagonist; conditions: FIG. 10, as for FIG. 7
# Description: FIG. 7. […] Data is used to calculate HTRF ratios, and represent the mean±standard error of mean of quadruplicates. ΔF is used for the comparison of different runs of the same assay which reflects the signal to background of the assay. ΔF=[(Ratiosample−Ratiobackgroud)/Ratiobackgroud] (%).
# A recently developed methodology which uses a fluorescently labeled ligand and the native MUR was used to investigate the ligand-binding capabilities of the water-soluble receptors.
# [5] = pH 7.0 + 0.1% SDS, expressed in yeast system
# [6] = None (no denaturant or reducing agent; normalisation reference)
molecule,measurement,setting,value
"Native MUR: native human μ receptor expressed in yeast system, in 0.1% SDS [reference compound]",Helix content,[1]; [5],40.6%
same,Others content,[1]; [5],40.5%
same,Turn content,[1]; [5],18.9%
B1,Fluorescence Peak Intensity (%; 300-350 nm),[2]; [6],100.0%
same,Molar Ellipticity (%; 222 nm),[2]; [6],100.0%
same,Fluorescence Peak Intensity (%; 300-350 nm),[2]; Urea (8M),28.4%
same,Molar Ellipticity (%; 222 nm),[2]; Urea (8M),40.0%
same,Fluorescence Peak Intensity (%; 300-350 nm),[2]; Urea (8M) 2-ME (25 mM),23.9%
same,Molar Ellipticity (%; 222 nm),[2]; Urea (8M) 2-ME (25 mM),25.1%
same,Fluorescence Peak Intensity (%; 300-350 nm),[2]; Urea (8M) 2-ME (200 mM),4.5%
same,Molar Ellipticity (%; 222 nm),[2]; Urea (8M) 2-ME (200 mM),0.0%
same,Helix content,[1]; pH 7.0 in NaHPO4,48.0%
same,Others content,[1]; pH 7.0 in NaHPO4,37.4%
same,Turn content,[1]; pH 7.0 in NaHPO4,14.6%
same,temperature at which almost fully unfolded (almost complete loss in molar ellipticity),[3]; 10 to 90° C.,90 °C
same,temperature at which ellipticity starts to be lost significantly,[3]; 10 to 90° C.,~62 °C
same,melting point,[3]; absence of cholesterol,82.9 °C
same,melting point,[3]; presence of cholesterol,89.3 °C
B2,binding activity (interaction with naltrexone),[4],binding activity was also observed
